Reference: publication PMC9482650, “Quantitative fragmentomics allow affinity mapping of interactomes” (Nature Communications, 2022)

Columns and labels:
Assay in all cases: holdup assay
Parameters in all cases: key: below the threshold = too weak to quantify, mostly under pKd 3.1 to 4
Settings in all cases: plain residues with an end cap or a label only (N-terminal biotin on a linker: ado-ado)
Inadl_6, Q8NI35 = target: Inadl_6, Q8NI35
MAGI3_2, Q5TCQ9 = target: MAGI3_2, Q5TCQ9
FRMPD1, Q5SYB0 = target: T1, FRMPD1, Q5SYB0
T1 sequence (Q5SYB0 52-145, limits assumed, looked up): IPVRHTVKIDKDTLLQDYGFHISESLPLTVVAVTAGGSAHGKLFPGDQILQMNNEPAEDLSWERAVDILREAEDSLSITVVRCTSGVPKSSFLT

LIN7B, Q9HAP6 = target: T2, LIN7B, Q9HAP6
T2 sequence (Q9HAP6 88-185, limits assumed, looked up): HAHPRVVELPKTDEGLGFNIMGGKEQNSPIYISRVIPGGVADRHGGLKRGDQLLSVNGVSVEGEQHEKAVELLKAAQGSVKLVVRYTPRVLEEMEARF

MAGI2_3, Q86UL8 = target: MAGI2_3, Q86UL8
LNX1_2, Q8TBB1 = target: LNX1_2, Q8TBB1
GOPC, Q9HD26 = target: GOPC, Q9HD26
NHERF3_3, Q5T2W1 = target: T3, NHERF3_3, Q5T2W1
T3 sequence (Q5T2W1 238-333, limits assumed, looked up): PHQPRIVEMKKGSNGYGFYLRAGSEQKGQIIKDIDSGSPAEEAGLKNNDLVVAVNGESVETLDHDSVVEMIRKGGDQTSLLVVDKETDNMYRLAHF

Inadl_1, Q8NI35 = target: Inadl_1, Q8NI35
DLG4_2, P78352 = target: DLG4_2, P78352
MAGI1_2, Q96QZ7 = target: MAGI1_2, Q96QZ7
RHPN1, Q8TCX5 = target: T4, RHPN1, Q8TCX5
T4 sequence (Q8TCX5 508-602, limits assumed, looked up): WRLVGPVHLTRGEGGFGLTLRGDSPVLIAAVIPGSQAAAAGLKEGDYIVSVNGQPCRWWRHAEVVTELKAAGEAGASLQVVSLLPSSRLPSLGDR

ARHGEF11, O15085 = target: T5, ARHGEF11, O15085
T5 sequence (O15085 42-136, limits assumed, looked up): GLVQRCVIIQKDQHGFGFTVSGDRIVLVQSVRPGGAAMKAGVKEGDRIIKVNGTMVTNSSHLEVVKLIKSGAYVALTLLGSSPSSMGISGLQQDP

FRMPD2_1, Q68DX3 = target: FRMPD2_1, Q68DX3
GIPC2, Q8TF65 = target: GIPC2, Q8TF65
PARD3_3, Q8TEW0 = target: PARD3_3, Q8TEW0
DLG3_2, Q92796 = target: T6, DLG3_2, Q92796
T6 sequence (Q92796 221-321, limits assumed, looked up): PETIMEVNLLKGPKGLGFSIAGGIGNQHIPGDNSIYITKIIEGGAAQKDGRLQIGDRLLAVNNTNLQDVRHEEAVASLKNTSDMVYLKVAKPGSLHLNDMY

Inadl_8, Q8NI35 = target: Inadl_8, Q8NI35
HTRA3, P83110 = target: T7, HTRA3, P83110
T7 sequence (P83110 354-453, limits assumed, looked up): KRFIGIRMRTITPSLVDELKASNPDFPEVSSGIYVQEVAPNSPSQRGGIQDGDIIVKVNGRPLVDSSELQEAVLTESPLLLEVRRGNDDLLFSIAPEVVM

Inadl_10, Q8NI35 = target: Inadl_10, Q8NI35
NHERF4_4, Q86UT5 = target: NHERF4_4, Q86UT5
MAST2, Q6P0Q8 = target: MAST2, Q6P0Q8
SNTA1, Q13424 = target: T8, SNTA1, Q13424
T8 sequence (Q13424 82-180, limits assumed, looked up): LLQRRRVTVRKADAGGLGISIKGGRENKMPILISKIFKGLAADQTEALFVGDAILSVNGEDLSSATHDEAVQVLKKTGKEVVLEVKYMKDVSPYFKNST

LNX1_3, Q8TBB1 = target: LNX1_3, Q8TBB1
APBA1_1, Q02410 = target: T9, APBA1_1, Q02410
T9 sequence (Q02410 651-752, limits assumed, looked up): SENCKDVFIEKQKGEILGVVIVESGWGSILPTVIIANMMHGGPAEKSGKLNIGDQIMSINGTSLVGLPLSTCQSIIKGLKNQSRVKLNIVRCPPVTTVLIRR

FRMPD2_3, Q68DX3 = target: FRMPD2_3, Q68DX3
GORASP1, Q9BQQ3 = target: GORASP1, Q9BQQ3
Inadl_4, Q8NI35 = target: Inadl_4, Q8NI35
Chain of Inadl_4, Q8NI35 (Q8NI35 547-651): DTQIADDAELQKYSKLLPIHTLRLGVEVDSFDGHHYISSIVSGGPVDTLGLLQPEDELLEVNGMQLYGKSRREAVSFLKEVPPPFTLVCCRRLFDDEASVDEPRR

Chain of LNX1_2, Q8TBB1 (Q8TBB1 371-470): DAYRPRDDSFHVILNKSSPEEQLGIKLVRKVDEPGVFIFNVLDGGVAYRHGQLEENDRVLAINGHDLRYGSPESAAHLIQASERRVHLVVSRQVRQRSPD
Chain of LNX1_3, Q8TBB1 (Q8TBB1 500-596): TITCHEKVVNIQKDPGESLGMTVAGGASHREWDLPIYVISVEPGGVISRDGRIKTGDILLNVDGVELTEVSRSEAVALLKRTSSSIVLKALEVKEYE
Chain of Inadl_10, Q8NI35 (Q8NI35 1673-1763): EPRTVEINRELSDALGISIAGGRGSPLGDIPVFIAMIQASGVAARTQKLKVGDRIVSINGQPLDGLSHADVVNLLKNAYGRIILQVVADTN
Chain of MAGI3_2, Q5TCQ9 (Q5TCQ9 398-503): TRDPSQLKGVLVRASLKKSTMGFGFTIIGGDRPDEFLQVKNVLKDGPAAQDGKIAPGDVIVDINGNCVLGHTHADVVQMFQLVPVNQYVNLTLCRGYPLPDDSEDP
Chain of Inadl_1, Q8NI35 (Q8NI35 113-229): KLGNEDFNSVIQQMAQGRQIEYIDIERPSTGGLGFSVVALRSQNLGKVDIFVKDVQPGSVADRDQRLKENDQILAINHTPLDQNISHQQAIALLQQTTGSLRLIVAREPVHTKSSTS
Chain of GORASP1, Q9BQQ3 (Q9BQQ3 1-208): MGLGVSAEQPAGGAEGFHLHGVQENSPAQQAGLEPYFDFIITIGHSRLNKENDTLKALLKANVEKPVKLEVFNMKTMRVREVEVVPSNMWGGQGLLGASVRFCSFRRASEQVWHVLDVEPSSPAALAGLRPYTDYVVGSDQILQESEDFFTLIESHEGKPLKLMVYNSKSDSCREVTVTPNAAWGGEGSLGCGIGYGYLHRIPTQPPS
Chain of Inadl_6, Q8NI35 (Q8NI35 1058-1167): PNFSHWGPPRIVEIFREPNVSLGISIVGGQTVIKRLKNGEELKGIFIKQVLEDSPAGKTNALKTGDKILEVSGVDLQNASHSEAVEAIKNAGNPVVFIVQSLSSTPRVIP
Chain of FRMPD2_3, Q68DX3 (Q68DX3 1073-1166): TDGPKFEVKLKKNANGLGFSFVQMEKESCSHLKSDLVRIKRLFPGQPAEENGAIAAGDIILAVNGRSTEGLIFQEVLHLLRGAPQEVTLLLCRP
Chain of Inadl_8, Q8NI35 (Q8NI35 1425-1530): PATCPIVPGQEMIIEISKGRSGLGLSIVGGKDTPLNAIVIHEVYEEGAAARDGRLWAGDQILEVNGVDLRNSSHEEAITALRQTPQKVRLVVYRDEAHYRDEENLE
Chain of DLG4_2, P78352 (P78352 155-259): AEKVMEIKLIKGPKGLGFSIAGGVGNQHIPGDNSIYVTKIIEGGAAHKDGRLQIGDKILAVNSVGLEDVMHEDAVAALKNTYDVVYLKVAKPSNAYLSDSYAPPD
Chain of GIPC2, Q8TF65 (Q8TF65 112-203): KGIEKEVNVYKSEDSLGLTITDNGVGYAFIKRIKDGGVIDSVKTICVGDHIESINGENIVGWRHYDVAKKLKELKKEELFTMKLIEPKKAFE
Chain of MAST2, Q6P0Q8 (Q6P0Q8 1099-1202): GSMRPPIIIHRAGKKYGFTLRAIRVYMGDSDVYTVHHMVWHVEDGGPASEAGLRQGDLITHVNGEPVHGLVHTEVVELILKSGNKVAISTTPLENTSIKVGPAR
Chain of MAGI1_2, Q96QZ7 (Q96QZ7 456-580): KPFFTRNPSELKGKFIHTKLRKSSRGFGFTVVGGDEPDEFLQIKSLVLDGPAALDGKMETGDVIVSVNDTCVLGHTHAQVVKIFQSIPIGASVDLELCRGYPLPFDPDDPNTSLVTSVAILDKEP
Chain of NHERF4_4, Q86UT5 (Q86UT5 464-550): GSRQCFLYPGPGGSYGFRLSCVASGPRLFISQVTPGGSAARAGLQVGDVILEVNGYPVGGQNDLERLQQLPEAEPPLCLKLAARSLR
Chain of PARD3_3, Q8TEW0 (Q8TEW0 582-685): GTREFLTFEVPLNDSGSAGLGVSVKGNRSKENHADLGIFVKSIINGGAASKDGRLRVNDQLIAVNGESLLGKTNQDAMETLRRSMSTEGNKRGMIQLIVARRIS
Chain of FRMPD2_1, Q68DX3 (Q68DX3 770-861): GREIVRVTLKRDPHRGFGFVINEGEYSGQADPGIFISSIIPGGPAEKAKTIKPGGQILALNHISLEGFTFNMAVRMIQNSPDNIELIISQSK
Chain of MAGI2_3, Q86UL8 (Q86UL8 600-682): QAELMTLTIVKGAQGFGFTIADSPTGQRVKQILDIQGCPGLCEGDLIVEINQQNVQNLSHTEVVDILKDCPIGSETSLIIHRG

## EKKTLIGIKL [GOT1L1, Q8NHS2]
Inadl_6, Q8NI35
  pKd: below the threshold
MAGI3_2, Q5TCQ9
  pKd: below the threshold
FRMPD1, Q5SYB0
  pKd: below the threshold
LIN7B, Q9HAP6
  pKd: below the threshold
MAGI2_3, Q86UL8
  pKd: below the threshold
LNX1_2, Q8TBB1
  pKd: below the threshold
GOPC, Q9HD26
  pKd: below the threshold
NHERF3_3, Q5T2W1
  pKd: below the threshold
Inadl_1, Q8NI35
  pKd: below the threshold
DLG4_2, P78352
  pKd: below the threshold
MAGI1_2, Q96QZ7
  pKd: below the threshold
RHPN1, Q8TCX5
  pKd: below the threshold
ARHGEF11, O15085
  pKd: below the threshold
FRMPD2_1, Q68DX3
  pKd: 3.88
GIPC2, Q8TF65
  pKd: below the threshold
PARD3_3, Q8TEW0
  pKd: below the threshold
DLG3_2, Q92796
  pKd: below the threshold
Inadl_8, Q8NI35
  pKd: below the threshold
HTRA3, P83110
  pKd: below the threshold
Inadl_10, Q8NI35
  pKd: below the threshold
NHERF4_4, Q86UT5
  pKd: 3.5
MAST2, Q6P0Q8
  pKd: 4.66
SNTA1, Q13424
  pKd: below the threshold
LNX1_3, Q8TBB1
  pKd: below the threshold
APBA1_1, Q02410
  pKd: below the threshold
FRMPD2_3, Q68DX3
  pKd: below the threshold
GORASP1, Q9BQQ3
  pKd: below the threshold
Inadl_4, Q8NI35
  pKd: below the threshold

## EALLQMESVA [CAVIN3, Q969G5]
Inadl_6, Q8NI35
  pKd: below the threshold
MAGI3_2, Q5TCQ9
  pKd: below the threshold
FRMPD1, Q5SYB0
  pKd: below the threshold
LIN7B, Q9HAP6
  pKd: 3.57
MAGI2_3, Q86UL8
  pKd: below the threshold
LNX1_2, Q8TBB1
  pKd: below the threshold
GOPC, Q9HD26
  pKd: below the threshold
NHERF3_3, Q5T2W1
  pKd: below the threshold
Inadl_1, Q8NI35
  pKd: below the threshold
DLG4_2, P78352
  pKd: below the threshold
MAGI1_2, Q96QZ7
  pKd: below the threshold
RHPN1, Q8TCX5
  pKd: 3.69
ARHGEF11, O15085
  pKd: below the threshold
FRMPD2_1, Q68DX3
  pKd: 3.62
GIPC2, Q8TF65
  pKd: 3.97
PARD3_3, Q8TEW0
  pKd: below the threshold
DLG3_2, Q92796
  pKd: 4.21
Inadl_8, Q8NI35
  pKd: below the threshold
HTRA3, P83110
  pKd: below the threshold
Inadl_10, Q8NI35
  pKd: below the threshold
NHERF4_4, Q86UT5
  pKd: below the threshold
MAST2, Q6P0Q8
  pKd: below the threshold
SNTA1, Q13424
  pKd: below the threshold
LNX1_3, Q8TBB1
  pKd: below the threshold
APBA1_1, Q02410
  pKd: below the threshold
FRMPD2_3, Q68DX3
  pKd: below the threshold
GORASP1, Q9BQQ3
  pKd: below the threshold
Inadl_4, Q8NI35
  pKd: below the threshold

## SARSRLSSNL [HCN2, Q9UL51]
Inadl_6, Q8NI35
  pKd: below the threshold
MAGI3_2, Q5TCQ9
  pKd: 4.18
FRMPD1, Q5SYB0
  pKd: below the threshold
LIN7B, Q9HAP6
  pKd: below the threshold
MAGI2_3, Q86UL8
  pKd: below the threshold
LNX1_2, Q8TBB1
  pKd: below the threshold
GOPC, Q9HD26
  pKd: 3.5
NHERF3_3, Q5T2W1
  pKd: below the threshold
Inadl_1, Q8NI35
  pKd: below the threshold
DLG4_2, P78352
  pKd: below the threshold
MAGI1_2, Q96QZ7
  pKd: 4.17
RHPN1, Q8TCX5
  pKd: 3.92
ARHGEF11, O15085
  pKd: 3.74
FRMPD2_1, Q68DX3
  pKd: below the threshold
GIPC2, Q8TF65
  pKd: below the threshold
PARD3_3, Q8TEW0
  pKd: below the threshold
DLG3_2, Q92796
  pKd: below the threshold
Inadl_8, Q8NI35
  pKd: below the threshold
HTRA3, P83110
  pKd: below the threshold
Inadl_10, Q8NI35
  pKd: below the threshold
NHERF4_4, Q86UT5
  pKd: below the threshold
MAST2, Q6P0Q8
  pKd: 5.4
SNTA1, Q13424
  pKd: below the threshold
LNX1_3, Q8TBB1
  pKd: below the threshold
APBA1_1, Q02410
  pKd: below the threshold
FRMPD2_3, Q68DX3
  pKd: below the threshold
GORASP1, Q9BQQ3
  pKd: below the threshold
Inadl_4, Q8NI35
  pKd: below the threshold

## IKAIVDLTGL [TRAF2, Q12933]
Inadl_6, Q8NI35
  pKd: below the threshold
MAGI3_2, Q5TCQ9
  pKd: below the threshold
FRMPD1, Q5SYB0
  pKd: below the threshold
LIN7B, Q9HAP6
  pKd: below the threshold
MAGI2_3, Q86UL8
  pKd: below the threshold
LNX1_2, Q8TBB1
  pKd: below the threshold
GOPC, Q9HD26
  pKd: below the threshold
NHERF3_3, Q5T2W1
  pKd: below the threshold
Inadl_1, Q8NI35
  pKd: below the threshold
DLG4_2, P78352
  pKd: below the threshold
MAGI1_2, Q96QZ7
  pKd: below the threshold
RHPN1, Q8TCX5
  pKd: below the threshold
ARHGEF11, O15085
  pKd: below the threshold
FRMPD2_1, Q68DX3
  pKd: below the threshold
GIPC2, Q8TF65
  pKd: below the threshold
PARD3_3, Q8TEW0
  pKd: below the threshold
DLG3_2, Q92796
  pKd: below the threshold
Inadl_8, Q8NI35
  pKd: below the threshold
HTRA3, P83110
  pKd: below the threshold
Inadl_10, Q8NI35
  pKd: below the threshold
NHERF4_4, Q86UT5
  pKd: below the threshold
MAST2, Q6P0Q8
  pKd: 5.48
SNTA1, Q13424
  pKd: below the threshold
LNX1_3, Q8TBB1
  pKd: below the threshold
APBA1_1, Q02410
  pKd: below the threshold
FRMPD2_3, Q68DX3
  pKd: below the threshold
GORASP1, Q9BQQ3
  pKd: below the threshold
Inadl_4, Q8NI35
  pKd: below the threshold
